Measurements from the supplement of paper PMC9170038.

Each sequence was assayed on K4 kissing-loop RNA reporter (assay: apparent KD of K4 kissing-loop reporter; higher = weaker reporter binding). Conditions: Eterna round: R107; input ligand: tryptophan 2.4 mM.
Procedure: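 RNA-MaP round R107: designed RNA switches with theophylline, tryptophan, arginine or FMN aptamers are transcribed on-chip within common flanks. They are titrated with a labelled K4 kissing-loop RNA reporter in RNA-MaP buffer (100 mM Tris pH 7.5, 80 mM KCl, 4 mM MgCl2), without ligand or with the indicated ligand. Median apparent KD per design.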
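Note: bound reporter read as fluorescence of individual clusters on recovered sequencing chips by microscopy, with normalized cluster intensities fitted with a binding model.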

Sequence	apparent KD of K4 kissing-loop reporter [nM]
UGACUGGACUGAAGGAGCGCUAAACUCCUAGUGAUGUUAGGAAAACGAGACAAAGUCUCGAGGCAGGUAGGUCGCAGUCUAGUCU [ArgBS 18 #SwitchBubble #StaticStem]	114
UCCAAUAUUUAUUGAUCCGCCUCGCAUCAACGAGGACCGGUACGGCCGCCACUCGUGCCUAGGUAGUGAUGUUACUUAGUUUACU [theeternabot_sameState_KL_Trp_A_32]	196
GCGUUAGUACUCGAUACCAGACCUCUAGUAGUGAUGUUGCUUGGCGAAGGCCUCGAACGAGUCCCUUGGCAGCGAGGAAAGAGGA [theeternabot_sameState_KL_Theo_B_4]	450
CAUAUACAAGUGAUGUUUGUACUAACCGAAGGAGCGUCGUUGAAGACAGGUAGGUCGCGGUUUAAGUUAGAUUAUAUAAUUCCAC [JR_Nu_SSArginiA_Sub027]	509
AGCUGUGGCAGAAGGAGCGACAGUUAUUCUGAUAGUACUCUGAGUGAUGUUCAGAACGACUGUCAGGUAGGUCGCUGUCACAGCU [#01 K4 Arginine B Exclusion]	169
CACCAUGAAUUCUCUAGGAGUGAUGUUUUUCGAGGACCGGUACGGCCGCCACUCGGACCAGGAACGUGGGAGCGGCGAAAAGACU [ttmullin]	373
GUUUCAGUGAUGUUGGAAGGCGAGCGGGAUACCAGCCAAGACUCAGGCCCUUGGCAGCCCACAUAUCCCACGUAGAUAGUAGCUC [Same State - Theophylline A (Freestyle 14)]	137
GUGUAGAAGUGAGGAUAUCGAUUUAAGAAUAAGCAGUGAUGUUGCAAGCAGGAGGAAUAAGAUUAACGAGAAGGCGUGGAUAUAG [FMN B Exclusion; Euphoria Solution]	99.1
AACCGCCAGUCGGCCGCCACUCACAGCAGUGAUGUUGCUGAAAAUCUAAAAGAGUGAUGUUCUUAGAGGACCGGGACUCCAGGCG [Same State Tryptophan B GF 5]	145
AGCUCAGAGUGACUCGAUAAGAGUCACAAACGAGGACCGGUACGGCCGCCACUCGAAAUAAUGGGAGUGAUGUUCUCACUGAGCA [#SwitchBubble 3 #StaticStem #K4Late]	384
CGCUCGAAAAUUAAGUGAGUGAUGUUCACUCGAGGACCGGUACGGCCGCCACUCGUCUUACGUUGAGACACUGCUCGUACUCAUA [theeternabot_exclusion_KL_Trp_A_38]	498
GAAGGUCAAAGACCUUCGUGCACACCUGAUACCAGUCGCGAAAGCGACCCUUGGCAGCAGGGCAGUGAUGUUGCCAGUGCACAAA [Omei KL Theo A SS A v5]	159
ACAUCGGUUGAGAGUGAUGUUCCUUGUGUUCGAGGACCGGUACGGCCGCCACUCGGGUAGAAAAUAACAGAUGUGUUUCCUUUUU [BDazzled - #18 SS Tryptophan A]	209
AUAUAGAGUGAUGUUCAUGAGUAUUUCGAAGGAGCGCUAAAUAAGGCAGGUAGGUCGCGGAAAAUAUAUAUAUAGAUAUAUAUAU [KL-SSArg-A29]	280
GCAGGACGAGGAGGAGGAUGAAUUACUGAAGGAGCGCAUAUUUUUGCAGGUAGGUCGCGGUAAAGAAGUAUAGUGAUGUUAUAUA [SSArgA.L]	408
UUCGAUCAGUGAUGUUGAUCAAUAGUCGAAGGAGCGCUAUAGAUAGCAGGUAGGUCGCGGCUACAGGGUGUUAAGACACCCAGAA [#13 K4 Arginine A Same State]	488
CCAUUCUGUUACGAUACCAGUCAAAUAUAUUUGAUCAAUACCCUCGCCGAGUGAUGUUCGGACCCUUGGCAGCGUCUGGGACAGG [ccdfmullin]	596
CCCUCACGAGUGAUGUUCGUAGGGUACAGUCAGGAUAUCAUGCGGUUGAGAAGGGACAGAAAGGGCGGCCACGGGUUGCUCAUUU [Issogeso]	530
UCGGCAGUGAACGAUACCAGCGUCACGUGGCUGGUGGUCACAUGAGUGAUGUUCAUGUAACGCCCUUGGCAGCGUGCGCGUACCG [KL-XTheo-B11]	103
UGAUACCAGACGGCCGCCACUCCCGUAAGUCAAAGACUUACGAAGAGAGUUAUCCAGUGAUGUUGGAGGACCGGGUCUGGUAUCU [FiskerMod 14 - Jieux - Exclusion - Tryptophan B]	261
CCGAGCCUGACGUAAGUCAGGCUCUGCGAGCGAGGACCGGUACGGCCGCCACUCGGUGCAGUGAUGUUGCAUGGCCGCAAGGCCG [#2 Exclusion - Tryptophan A Attempt #23 (HarryS)]	351
UAGUCCUAGUGAUGGUCAUCACGUGGCGGGCGAGGACCGGUACGGCCGCCACUCGACUUUGCAGUGAUGUUGCAAACCGGACAAU [Exclusion - Tryptophan A (Freestyle 20)]	191
CGCCGCAAGGCGAGCGCUCCCACUCCGGAAGGAGCGCCCGUAAGGGCAGGUAGGUCGCCGGAGUGAUGUUCCGGUGGAGGGCUCG [#2 Exclusion - Arginine A Attempt #14 (Inspired by Omei)]	184
UGAUACCAGACGGCCGCCACUGCACCAGUCAAUGACUGAGCGCGGUGGCGCUCAGUGAUGUUGAGCAGGACCGGGUCUGGUAUCU [Mod of Eli's TrypBX 8 v4]	93.9
CGCGCGCGCUUGAGAGGGCGCGCGCGAAGUGAGGAUAUUUAGGGAGAAAGAAGGCACUAUAAAAUAUAGUGAUGUUAUAUAAGGG [SSFMNA.E]	441
UUGUUUGGUUGAGAGGUUGGGCGAGAUGAUACCAGUAUAGUAUUGUACCCUUGGCAGCAUAGGAGAGAUAUAGUGAUGUUGUAUG [SSTheophA.W]	328
AAGCAGUCACUCAAAGCCAUCGAAGAUGGACGAGGACCGGUACGGCCGCCACUCGGAGUGAUGUUCCGAAGACUGCAAAAUAAAA	230
